Experimental data reported in patent US11827690B2, “ApoC-II mimetic peptides” (THE UNITED STATES OF AMERICA, as represented by the …, priority 2017, dated 2023).
Non-standard residues stand in square brackets, D forms with d. No end group written: not given here. *: point of attachment. Stearoyl = CCCCCCCCCCCCCCCCCC(=O)*; Nle = CCCC[C@H](N)C(=O)O

Tests used:
bovine LPL [1] = biological target: T1, bovine LPL (Bos taurus, UniProt P11151); test: in vitro LPL assay using Intralipid as substrate; assay type: biochemical; settings: concentrations of between about 1 nM to about 10 μM, FIG. 7
T1 sequence (P11151 29-478): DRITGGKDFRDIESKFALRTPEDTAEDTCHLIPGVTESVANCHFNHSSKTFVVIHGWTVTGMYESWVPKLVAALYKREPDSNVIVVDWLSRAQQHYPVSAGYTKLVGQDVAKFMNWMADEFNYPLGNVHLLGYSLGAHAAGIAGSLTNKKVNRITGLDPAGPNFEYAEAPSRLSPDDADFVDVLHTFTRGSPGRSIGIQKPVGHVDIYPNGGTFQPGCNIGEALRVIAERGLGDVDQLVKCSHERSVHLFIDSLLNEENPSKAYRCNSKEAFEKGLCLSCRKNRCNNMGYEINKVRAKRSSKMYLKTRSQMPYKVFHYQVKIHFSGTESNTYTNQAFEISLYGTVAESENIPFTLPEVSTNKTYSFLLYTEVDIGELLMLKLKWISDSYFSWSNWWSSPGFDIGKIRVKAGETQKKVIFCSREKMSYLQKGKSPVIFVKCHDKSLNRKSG
Procedure: (§1) Preparation of LPL: frozen stock of 10 μL of 0.5 mg/mL bovine LPL was used and diluted 1:100 (10 μL+990 μL of PBS).
(§2) Preparation of 20% Intralipid: 2000 mg/dL TG Intralipid was used to prepare 3 mg/dL TG Intralipid by diluting 1.5 μL of the stock with 998.5 μL PBS, or by diluting the stock 1:10 first and then mixing 15 μL of the diluted stock with 985 μL PBS. When apoC-II deficient human serum was used as a substrate, a frozen 10 μL aliquot of 1711 mg/dL (TG) was diluted by adding 990 μL PBS (1:100 dilution).
(§3) Preparation of free fatty acid (NEFA) assay: NEFA reagents were purchased from Wako Diagnostics, Wako Life Sciences, Inc. Reagent A was prepared by mixing Coloring Reagent A with Solvent A (225 μL per well). Reagent B was prepared by mixing Coloring Reagent B with Solvent B (75 μL per well). 5 nmoL oleic acid standard was prepared by diluting 20 μL of 1 mM oleic acid stock (WAKO NEFA standard solution) with 180 μL of 0.2% BSA.
LPL activity assay: 10 μL of Intralipid, human plasma sample, or mouse plasma sample was added in each well using repeater pipette. 10 μL (or 15 μL in the wells with no LPL control) of PBS and 10 μL of 1% BSA was added in each well using repeater pipette. […]
Free fatty acids (NEFA) assay: 45 μL of 5 nmoL standard and 0 nmoL control (0.2% BSA) were added to corresponding wells. […] The absorbance at 550 nm and 660 nm was measured.

bovine LPL [2] = biological target: T1, bovine LPL; test: in vitro LPL assay using apoC-II deficient patient sera as substrate; assay type: biochemical; settings: for promoting TG hydrolysis in the presence of LPL / efficiency compared with native apoC-II protein: FIG. 6; for efficiency compared with native apoC-II protein: at lower concentrations; for TG hydrolysis: concentrations from 100 pM to 10 μM, FIG. 12; for TG clearance ability compared with Delta4: FIG. 10
Procedure: as §1, §2, §3
(§4) LPL activity assay: 10 μL of Intralipid, human plasma sample, or mouse plasma sample was added in each well using repeater pipette. 10 μL (or 15 μL in the wells with no LPL control) of PBS and 10 μL of 1% BSA was added in each well using repeater pipette. 10 μL of peptides were added to corresponding wells in vertical triplicates (lowest concentration is on a left, highest is on the right). The plate was spun down at 1000 RPM for 10 seconds to mix and to remove the solutions from the wall of each well. The plate was put on ice and 5 μL of LPL was added using repeater pipette. The plate was spun down again at 1000 RPM for 10 seconds. The plate was covered and put back on ice for an incubation of 30 min. The plate was then moved to 37° C. and incubated for 1 hour.
(§5) Free fatty acids (NEFA) assay: 45 μL of 5 nmoL standard and 0 nmoL control (0.2% BSA) were added to corresponding wells. 225 μL of reagent A was added in each well using the reagent tray and 12-channel pipette. The plate was incubated for 10 min before 75 μL of reagent B was added to each well using the reagent tray and 12-channel pipette. The plate was not covered due to the high volume. The absorbance at 550 nm and 660 nm was measured.

C57BL/6 mice (wild-type) = test: post-prandial serum TG in C57BL/6 mice after oral gavage with vegetable oil; assay type: in vivo; settings: intraperitoneally injected 30 min before gavage, FIG. 20
Procedure: (§6) C57Bl/6 mice (wild-type), apoC-II knockout (apoC-II KO) mice, and apoC-III transgenic mice were used for in vivo study. The C57Bl/6 mice (wild-type) were purchased from Taconic Biosciences Inc. The apoC-II KO mice were created as described in Sakurai et al., J Pharmacol Exp Ther 356:341-353, 2016. The apoC-III transgenic mice were generated by overexpressing human apoC-III in C57Bl/6 mice. See Qu et al., J. Lipid Res. 48:1476-1487, 2007.
(§7) Mice were fasted overnight (approximately 12 hours) before the study and 6 hours during the study, the next day. The apoC-II mimetic peptides were synthetically produced and free of biological contamination (not available as FDA approved compounds/treatment). Peptides were produced and used in sterile conditions and filtered by 0.2 nm filter before injections in a single dose 1-10 μmol/kg body weight (B. W.) administered either subcutaneous injection (S.Q. or S.C.), intraperitoneal injection (I.P.) or intravenous injection (I.V.) (in a sterile, pharmaceutical grade PBS solution at a volume ≤200 μL) as described in Sakurai et al., J Pharmacol Exp Ther 356:341-353, 2016.
(§8) In some experiments, each animal received 20% Intralipid (FDA approved, Fresenius Kabi, Uppsala, Sweden) in a single dose either by oral gavage (using special sterile single-use non-toxic animal feeding needles) in a dose 10-20 μL/gram body weight (B.W.) (Tuzcu et al. Drug Chem Toxicol 37: 261-267, 2014; Kusminski et al. Nature Medicine 18: 1539-1549, 2012), or by intraperitoneal injection in a single bolus of 0.1-1.0 mL (Mahadero et al. American J Surgery 164: 45-50, 1992), or by intragastric administration of a dietetic commercially-available liquid oil (food grade vegetable, corn, soy or olive oil) in a single dose 10-20 μL/gram body weight. These oils were a source of TG—when absorbed TG tends to be broken down within 3 h (peak in 30 min) (Kritchevsky Nutritional Biochemistry 6:172-178, 1995). Blood samples (20-30 μL) were obtained from the retro-orbital plexus at time points: −1 h, 0 h, 1 h, 3 h, 6 h and 24 h for measurements of lipids. Mice were returned to metabolic cages after the 6 h time point where the food was put back. Once the study was completed (after 24 hours from the fat administration), mice were euthanized and organs collected.

apoC-II knockout mice = test: plasma lipids of apoC-II knockout mice after peptide injection; assay type: in vivo
Procedure: as §6
as §7, with “Peptides were produced and used in sterile conditions and filtered by 0.2 nm filter before injections in a single dose 1-10 μmol/kg body weight (B.” left out

bovine LPL [3] = biological target: T1, bovine LPL; test: in vitro LPL assay using hypertriglyceridemia patient sera as substrate; assay type: biochemical; settings: sera of patients with high levels of apoC-III protein, FIG. 27
Procedure: as §1, §3, §4, §5

wild-type mice = test: serum TG of wild-type mice after Intralipid injection with or without LPL inhibitor Triton WR1339; assay type: in vivo; settings: co-injection with Intralipid, 6 h time point
Procedure: as §8
The ability of apolipoprotein mimetic peptides to normalize hypertriglyceridemia in mice treated with an LPL inhibitor, Tyloxapol, in presence of high TG provided by 20% Intralipid, was assessed.
Mice were fasted overnight (approximately 12 hours) before the study and 6 hours during the study, the next day. The apo mimetic peptides were synthetically produced and free of biological contamination (not available as FDA approved compounds/treatment). Peptides were produced and used in sterile conditions and filtered by 0.2 nm filter before injections in a single dose 1-5 μmol/kg B.W. either S.C. or I.P. or I.V. (in a sterile, pharmaceutical grade PBS solution at a volume ≤200 μL). Next, 10% Tyloxapol (Triton WR-1339, T-0307, Sigma-Aldrich) was injected I.V. in a single dose of 5 μL/gram B.W., as described earlier (Zhang Y. L. et al., J Biol Chem. 279: 19362-19374, 2004; Abe C. et al., J. Nutr. 137: 345-350, 2007). […] Finally, each animal received 20% Intralipid (FDA approved, Fresenius Kabi, Uppsala, Sweden) in a single dose either by oral gavage (using special sterile single-use non-toxic animal feeding needles)—in a dose 10-20 μL/gram B.W. (Tuzcu K. et al., Drug Chem Toxicol., 37: 261-267, 2014, Kusminski C. et al., Nature Medicine. 18: 1539-1549, 2012), or by intraperitoneal injection—in a single bolus of 0.1-1.0 mL (Mahadero G. et al., American J Surgery. 164: 45-50, 1992). Blood samples (20-30 μL) were obtained from the retro-orbital plexus at time points: −1 h, 0 h, 1 h, 3 h, 6 h and 24 h for measurements of lipids. Mice were returned to metabolic cages after the 6 h time point where the food was put back. Once the study was completed (after 24 hours from the Intralipid administration), mice were euthanized and organs collected.

[4] = biological target: T2, LPL inhibited by apoC-III (Bos taurus, UniProt P11151); test: LPL assay using human apoC-II deficient plasma as substrate with recombinant apoC-III; assay type: biochemical; settings: 25 μM apoC-III added; from about 1.5 μM without
T2 sequence (P11151 29-478): T1 sequence (P11151 29-478)
Procedure: as §4, §5
(§9) LPL assay was performed using Intralipid, high TG human plasma (1:50 dilution), or apoC-III transgenic mouse plasma (1:50 dilution). When Intralipid was used as a substrate, 25 or 50 μM recombinant ApoC-III was added as an inhibitor. When the high TG human plasma was used as a substrate, 25 or 50 μM recombinant ApoC-III was added as an inhibitor with or without pre-incubation at 37° C. for 1 hour. An apoC-II mimetic peptide was added at various concentrations.

[5] = biological target: T2, LPL inhibited by apoC-III; test: LPL activation assay with Intralipid as substrate and recombinant apoC-III as an inhibitor; assay type: biochemical; settings: Intralipid substrate, FIG. 31
Procedure: as §4, §5, §9

[6] = biological target: T2, LPL inhibited by apoC-III; test: LPL activation assay with high TG human plasma as substrate and recombinant apoC-III as an inhibitor; assay type: biochemical; settings: 50 μM apoC-III added; from about 3.2 μM without; plasma 1:50 dilution
Procedure: as §4, §5, §9

| Substance | efficiency compared with native apoC-II protein (bovine LPL [1]) | promoting TG hydrolysis in the presence of LPL (bovine LPL [2]) | efficiency compared with native apoC-II protein (bovine LPL [2]) | TG hydrolysis (bovine LPL [2]) | serum TG increase after vegetable oil gavage (C57BL/6 mice (wild-type)) | TG clearance ability compared with Delta4 (bovine LPL [2]) | further results |
| --- | --- | --- | --- | --- | --- | --- | --- |
| DYLKAVFEKLRDLYSKFTAAnLSTYTGIFTDQVLSVLKGEE (DYLKAVFEKLRDLYSKFTAA[Nle]STYTGIFTDQVLSVLKGEE) [Delta4] | worked more efficiently than the native apoC-II protein | capable of promoting TG hydrolysis in the presence of LPL | worked more efficiently than the native apoC-II protein | promoted TG hydrolysis in a dose-dependent manner | the TG increase was significantly reduced |  | plasma TG (apoC-II knockout mice; intraperitoneal injection): marked reduction of plasma TG; total cholesterol level (apoC-II knockout mice; intraperitoneal injection): decrease in total cholesterol level; time of maximum decrease of plasma TG (apoC-II knockout mice; intraperitoneal injection, FIG. 18): about 3 hours; plasma TG (apoC-II knockout mice; subcutaneous injection): rapid and marked reduction of plasma TG; total cholesterol level (apoC-II knockout mice; subcutaneous injection): decrease in total cholesterol level; LPL activity (bovine LPL [3]): increased the LPL activity |
| DYLKAVFEKLRDLYSKFTPAMSTYTGIFTDQVLSVLKGEE [Delta4b] |  |  |  | promoted TG hydrolysis in a dose-dependent manner | the TG increase was significantly reduced | enhanced the TG clearance ability of the exemplary apoC-II mimetic peptide Delta4 |  |
| DYLKAVFEKLRDLYSKKC18TPAMSTYTGIFTDQVLSVLKGEE (DYLKAVFEKLRDLYSKK(Stearoyl)TPAMSTYTGIFTDQVLSVLKGEE) [Delta4b-3] |  |  |  | promoted TG hydrolysis in a dose-dependent manner | the TG increase was significantly reduced | enhanced the TG clearance ability of the exemplary apoC-II mimetic peptide Delta4 |  |
| DYLKEVFEKLRDLYSKFTAAnLSTYTGIFTDQVLSVLKGEE (DYLKEVFEKLRDLYSKFTAA[Nle]STYTGIFTDQVLSVLKGEE) [Delta5] | worked more efficiently than the native apoC-II protein | capable of promoting TG hydrolysis in the presence of LPL | worked more efficiently than the native apoC-II protein |  |  |  |  |
| Tyloxapol [Triton, reference compound] |  |  |  |  |  |  | increase of serum TG level (wild-type mice): more than 1000 fold |
| apoC-III recombinant protein: recombinant ApoC-III added as an inhibitor in the LPL assay |  |  |  |  |  |  | free fatty acid (NEFA) production [4]: about 0.8 μM; effect on production of free fatty acid (NEFA) [5]: inhibited the production of free fatty acid (NEFA); free fatty acid (NEFA) production [6]: about 1.7 μM |
